Data from publication PMC6139572.
pKd: −log10 of the molar value.

Experiments:
[1] = target: isolated native thin filaments (UniProt P68032); assay: co-sedimentation; high-velocity co-sedimentation of C1mC2 constructs with isolated native thin filaments; performed as described in ref. 15
[2] = target: isolated native thin filaments (UniProt P68032)
[3] = target: myosin S2Δ, the first 126 amino acids of myosin sub-fragment 2 (rat heart) (rat); assay: MST; as a2 (pH 7, 50 mmol/liter KCl); 25 °C
[4] = target: myosin S2Δ, the first 126 amino acids of myosin sub-fragment 2 (rat heart) (rat); assay: MST; as a2 (pH 7, 50 mmol/liter KCl); 30 °C
[5] = target: myosin S2Δ, the first 126 amino acids of myosin sub-fragment 2 (rat heart) (rat); assay: MST; as a2 but 180 mmol/liter KCl; pH 7; 30 °C
[6] = target: myosin S2Δ, the first 126 amino acids of myosin sub-fragment 2 (rat heart) (rat); assay: MST; as a2 (pH 7, 50 mmol/liter KCl); biphasic binding curve of Fig. S3, the temperature of the curve is not given
[7] = target: myosin S2Δ, the first 126 amino acids of myosin sub-fragment 2 (rat heart) (rat); assay: MST; Monolith NT.115; 100 nmol/liter Alexa 647–myosin S2Δ fixed, cMyBP-C construct titrated; 20 mmol/liter MOPS pH 7, 1 mmol/liter EDTA, 50 mmol/liter KCl, 1 mmol/liter DTT, 0.05% Tween 20; 21 °C

With “PKA tris-phosphorylated C1mC2 of rat cardiac myosin-binding protein-C (domain or fragment)” the pKd [1] was 4.24.
Work on “C1mC2, unphosphorylated N-terminal fragment of rat cardiac myosin-binding protein-C containing the Ig-domains C1 and C2 and the intervening m-domain (domain or fragment)” yielded an isometric force of demembranated rat ventricular trabeculae in relaxing solution (pCa 9) with 40 μmol/liter C1mC2, as percent of that during full Ca2+ activation [2] of 57%, a pKd [3] of 4.23 and a pKd [4] of 4.67. It also gave a pKd [5] of 3.44, a Kd of the additional low-affinity binding interaction [6] of 400 µM and a pKd [1] of 4.64. For the same substance, the pKd [7] was 3.97.
